# Positions count from the first letter of the chain named. Names and notes keep the numbering of the source.
# B1: anti-IL-6 antibody, heavy chain A49T, light chain WT (antibody, IgG1, V domains shown)
# VH: EVQLVESGGGLVQPGGSLRLSCAASGFTFSPFAMSWVRQAPGKGLEWVTKISPGGSWTYYSDTVTGRFTFSLDTSKSTAYLQMNSLRAEDTAVYYCARQLWGYYALDIWGQGTLVTVSS
# VL: DIQLTQSPSSLSASVGDRVTITCSASISVSYMYWYQQKPGKAPKLLIYDMSNLASGVPSRFSGSGSGTDFTLTISSLQPEDFATYYCMQWSGYPYTFGQGTKVEIK
# notes: Full IgG1 tested; V domains derived as in m2
# B2: anti-IL-6 antibody, heavy chain A97V, light chain WT (antibody, IgG1, V domains shown)
# VH: B1 VH with T49A, A97V
# VL: B1 VL
# notes: as for B1
# B3: anti-IL-6 antibody, heavy chain A105H, light chain WT (antibody, IgG1, V domains shown)
# VH: B1 VH with T49A, A105H
# VL: B1 VL
# notes: as for B1
# B4: anti-IL-6 antibody, heavy chain A105Q, light chain WT (antibody, IgG1, V domains shown)
# VH: B1 VH with T49A, A105Q
# VL: B1 VL
# notes: as for B1
# B5: anti-IL-6 antibody, heavy chain D62F, light chain WT (antibody, IgG1, V domains shown)
# VH: B1 VH with T49A, D62F
# VL: B1 VL
# notes: as for B1
# B6: anti-IL-6 antibody, heavy chain F27G, light chain WT (antibody, IgG1, V domains shown)
# VH: B1 VH with F27G, T49A
# VL: B1 VL
# notes: as for B1
# B7: anti-IL-6 antibody, heavy chain F27P, light chain WT (antibody, IgG1, V domains shown)
# VH: B1 VH with F27P, T49A
# VL: B1 VL
# notes: as for B1
# B8: anti-IL-6 antibody, heavy chain F27R, light chain WT (antibody, IgG1, V domains shown)
# VH: B1 VH with F27R, T49A
# VL: B1 VL
# notes: as for B1
# B9: anti-IL-6 antibody, heavy chain F27S, light chain WT (antibody, IgG1, V domains shown)
# VH: B1 VH with F27S, T49A
# VL: B1 VL
# notes: as for B1
# B10: anti-IL-6 antibody, heavy chain F27V, light chain WT (antibody, IgG1, V domains shown)
# VH: B1 VH with F27V, T49A
# VL: B1 VL
# notes: as for B1
# B11: anti-IL-6 antibody, heavy chain G102D, light chain WT (antibody, IgG1, V domains shown)
# VH: B1 VH with T49A, G102D
# VL: B1 VL
# notes: as for B1
# B12: anti-IL-6 antibody, heavy chain L106I, light chain WT (antibody, IgG1, V domains shown)
# VH: B1 VH with T49A, L106I
# VL: B1 VL
# notes: as for B1
# B13: anti-IL-6 antibody, heavy chain Q99A, light chain WT (antibody, IgG1, V domains shown)
# VH: B1 VH with T49A, Q99A
# VL: B1 VL
# notes: as for B1
# B14: anti-IL-6 antibody, heavy chain Q99H, light chain WT (antibody, IgG1, V domains shown)
# VH: B1 VH with T49A, Q99H
# VL: B1 VL
# notes: as for B1
# B15: anti-IL-6 antibody, heavy chain R98G, light chain WT (antibody, IgG1, V domains shown)
# VH: B1 VH with T49A, R98G
# VL: B1 VL
# notes: as for B1
# B16: anti-IL-6 antibody, heavy chain S30G, light chain WT (antibody, IgG1, V domains shown)
# VH: B1 VH with S30G, T49A
# VL: B1 VL
# notes: Full IgG1 tested; V domains derived as in m2; also called S30G (heavy chain)
# B17: anti-IL-6 antibody, heavy chain S30W, light chain WT (antibody, IgG1, V domains shown)
# VH: B1 VH with S30W, T49A
# VL: B1 VL
# notes: as for B1
# B18: anti-IL-6 antibody, heavy chain S30Y, light chain WT (antibody, IgG1, V domains shown)
# VH: B1 VH with S30Y, T49A
# VL: B1 VL
# notes: as for B1
# B19: anti-IL-6 antibody, heavy chain S35H, light chain WT (antibody, IgG1, V domains shown)
# VH: B1 VH with S35H, T49A
# VL: B1 VL
# notes: as for B1
# B20: anti-IL-6 antibody, heavy chain S35Q, light chain WT (antibody, IgG1, V domains shown)
# VH: B1 VH with S35Q, T49A
# VL: B1 VL
# notes: as for B1
# B21: anti-IL-6 antibody, heavy chain S56H, light chain WT (antibody, IgG1, V domains shown)
# VH: B1 VH with T49A, S56H
# VL: B1 VL
# notes: as for B1
# B22: anti-IL-6 antibody, heavy chain S56R, light chain WT (antibody, IgG1, V domains shown)
# VH: B1 VH with T49A, S56R
# VL: B1 VL
# notes: as for B1
# B23: anti-IL-6 antibody, heavy chain S61A, light chain WT (antibody, IgG1, V domains shown)
# VH: B1 VH with T49A, S61A
# VL: B1 VL
# notes: as for B1
# B24: anti-IL-6 antibody, heavy chain S61R, light chain WT (antibody, IgG1, V domains shown)
# VH: B1 VH with T49A, S61R
# VL: B1 VL
# notes: as for B1
# B25: anti-IL-6 antibody, heavy chain T28A, light chain WT (antibody, IgG1, V domains shown)
# VH: B1 VH with T28A, T49A
# VL: B1 VL
# notes: as for B1
# B26: anti-IL-6 antibody, heavy chain T28E, light chain WT (antibody, IgG1, V domains shown)
# VH: B1 VH with T28E, T49A
# VL: B1 VL
# notes: as for B1
# B27: anti-IL-6 antibody, heavy chain T28K, light chain WT (antibody, IgG1, V domains shown)
# VH: B1 VH with T28K, T49A
# VL: B1 VL
# notes: as for B1
# B28: anti-IL-6 antibody, heavy chain T28Y, light chain WT (antibody, IgG1, V domains shown)
# VH: B1 VH with T28Y, T49A
# VL: B1 VL
# notes: as for B1
# B29: anti-IL-6 antibody, heavy chain T58K, light chain WT (antibody, IgG1, V domains shown)
# VH: B1 VH with T49A, T58K
# VL: B1 VL
# notes: as for B1
# B30: anti-IL-6 antibody, heavy chain T58R, light chain WT (antibody, IgG1, V domains shown)
# VH: B1 VH with T49A, T58R
# VL: B1 VL
# notes: as for B1
# B31: anti-IL-6 antibody, heavy chain T58V, light chain WT (antibody, IgG1, V domains shown)
# VH: B1 VH with T49A, T58V
# VL: B1 VL
# notes: as for B1
# B32: anti-IL-6 antibody, heavy chain T63D, light chain WT (antibody, IgG1, V domains shown)
# VH: B1 VH with T49A, T63D
# VL: B1 VL
# notes: as for B1
# B33: anti-IL-6 antibody, heavy chain T63E, light chain WT (antibody, IgG1, V domains shown)
# VH: B1 VH with T49A, T63E
# VL: B1 VL
# notes: as for B1
# B34: anti-IL-6 antibody, heavy chain T63G, light chain WT (antibody, IgG1, V domains shown)
# VH: B1 VH with T49A, T63G
# VL: B1 VL
# notes: as for B1
# B35: anti-IL-6 antibody, heavy chain T63K, light chain WT (antibody, IgG1, V domains shown)
# VH: B1 VH with T49A, T63K
# VL: B1 VL
# notes: as for B1
# B36: anti-IL-6 antibody, heavy chain T63Q, light chain WT (antibody, IgG1, V domains shown)
# VH: B1 VH with T49A, T63Q
# VL: B1 VL
# notes: as for B1
# B37: anti-IL-6 antibody, heavy chain T65G, light chain WT (antibody, IgG1, V domains shown)
# VH: B1 VH with T49A, T65G
# VL: B1 VL
# notes: as for B1
# B38: anti-IL-6 antibody, heavy chain T65Y, light chain WT (antibody, IgG1, V domains shown)
# VH: B1 VH with T49A, T65Y
# VL: B1 VL
# notes: as for B1
# Target: T1, recombinant human IL-6 (human, UniProt P05231 30-212)
# T1 construct: Flowed in solution over the captured antibodies
# T1 sequence (P05231 30-212 limits assumed): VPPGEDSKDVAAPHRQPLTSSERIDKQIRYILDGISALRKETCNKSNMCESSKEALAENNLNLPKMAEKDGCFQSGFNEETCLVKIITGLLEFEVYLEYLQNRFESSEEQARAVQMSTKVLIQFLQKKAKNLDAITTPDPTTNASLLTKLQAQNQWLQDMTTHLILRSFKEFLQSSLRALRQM
# Experiment: SPR (Biacore), supernatant IgG on Protein A, 25 C
# Description: Antibodies were captured on a Protein A chip (GE) by injecting 1:20 dilution of cell supernatant at 10 μL/min for 60 seconds. […] The sensor chip was regenerated by a 60 seconds injection of 10 mM Glycine pH 1.7 at flow rate of 50 μL/min. […] For this setup, 1 μg/mL of purified antibody was injected over a Protein A chip at 10 μL/min for 25-28 seconds. Data analysis for supernatant and purified samples were performed using BIAevaluation software (GE). All sensorgrams were double reference subtracted and fit using a 1:1 Langmuir binding model.
Binder,Kd [nM],koff [s⁻¹],kon [M⁻¹ s⁻¹]
B1,0.337,0.000151,448000
B2,0.574,0.000179,311000
B3,1.79,0.000723,404000
B4,1.04,0.000493,474000
B5,0.35,0.000147,420000
B6,0.24,0.000206,856000
B7,0.344,0.000196,570000
B8,0.415,0.000209,503000
B9,0.278,0.000203,731000
B10,0.442,0.000208,470000
B11,1.33,0.0006,452000
B12,0.279,0.000134,479000
B13,2,0.000737,368000
B14,1.94,0.00105,539000
B15,1.42,0.000251,176000
B16,0.333,0.000132,398000
B17,0.376,0.000157,417000
B18,0.334,0.000122,365000
B19,0.379,0.000132,348000

Binder,Kd [nM],koff [s⁻¹],kon [M⁻¹ s⁻¹]
B20,0.346,0.00013,375000
B21,0.452,0.000161,356000
B22,0.567,0.000155,273000
B23,0.394,0.000149,379000
B24,0.467,0.000162,348000
B25,0.354,0.000139,393000
B26,0.347,0.000163,469000
B27,0.37,0.000143,386000
B28,0.412,0.000137,332000
B29,0.39,0.000179,460000
B30,0.426,0.000152,357000
B31,0.226,0.000181,803000
B32,0.423,0.000174,410000
B33,0.445,0.000169,380000
B34,0.404,0.000209,517000
B35,0.388,0.000212,546000
B36,0.594,0.000184,309000
B37,0.0954,5.69e-05,597000
B38,0.275,0.000206,749000

# — patent publication US20240209076A1 (KODIAK SCIENCES, published 2024)
